Values belong to the binder of their own block, whether it stands above or below them.
Legend:
[1] = target: Myc-Noggin4 (Xenopus laevis); test: co-IP; quantitative co-immunoprecipitation (qCoIP): gradually decreasing concentrations of Flag-Wnt8 added to a standard amount of Myc-Noggin4 pre-mixed with anti-Myc resin; bound and unbound Flag-Wnt8 by quantitative Western blot against Flag-BAP standard
[2] = target: 3Myc-His6-Noggin4 (Xenopus laevis); test: SPR; Biacore T200; 3Myc-6His-Noggin4 immobilised on CM5 chip (1,500 RU) by amine coupling; 6His-Wnt8 injected; HBS-EP, 25 °C; equilibrium responses fitted to a 1:1 Langmuir model
[3] = target: T1, TagRFP-XWnt8 (Xenopus laevis, UniProt P28026 23-358); test: FRAP in living embryos; EGFP-Noggin4 bleached in a single intercellular space of the animal ectoderm that also holds TagRFP-Wnt8 (quasi-immobile); about 1 μM of each; Kd selected to fit the FRAP kinetics by a diffusion-adsorption model; conditions: partners not purified
T1 construct: Wnt8 (XWnt8), Xenopus laevis, secreted fusion with TagRFP; also called TagRFP-Wnt8
T1 sequence (looked up): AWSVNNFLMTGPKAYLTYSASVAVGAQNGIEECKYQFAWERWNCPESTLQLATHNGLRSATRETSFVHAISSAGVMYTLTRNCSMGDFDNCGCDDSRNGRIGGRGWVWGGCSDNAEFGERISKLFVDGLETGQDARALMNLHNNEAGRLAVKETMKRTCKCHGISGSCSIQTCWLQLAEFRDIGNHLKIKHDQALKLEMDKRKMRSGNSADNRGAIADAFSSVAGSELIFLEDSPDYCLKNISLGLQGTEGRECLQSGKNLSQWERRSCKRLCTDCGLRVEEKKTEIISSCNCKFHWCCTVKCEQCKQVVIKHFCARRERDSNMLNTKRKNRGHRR

Kd [1]: 10 nM
B1: Flag-Wnt8 (ligand)
chain: T1 sequence (looked up)

Kd [2]: 90 nM
B2: Xenopus laevis recombinant Wnt8 labeled by 6-Hys-tag at the N-terminus (ligand)
chain: T1 sequence (looked up)

Kd [3]: ≤ 100 nM
B3: EGFP-Noggin4 (natural protein)
chain: MVHILVISWLMTLGTWGPTAICAPTNDLEPHNRTQKDMDIGSLRRQLSSGTRPYSLSLSPQDYHYSPKPKHLRVSRLLRLLGSSFDPFWMSVEQPADYSTSLLSTLSQDLYDGASRYRKKLAQEVQGLNFDSLQLPTELSANASQNIQNEIRQWLVQRASCQLTSTWVDLGTVFWPRWVRHTDCDGTNTACSWPPGMACRQAQFTQIKLLAWHCWMKDTGLGWATQQCTWRQVPYPVVAACKCTCR
modifications: No candidate is Noggin4 (P49011 is Noggin1). The paper reports two pseudoalleles and does not say which was used, so nog4.L is assumed. The Table S1 primers show the mature part starting at GQTNDL …

Reference: PMC4789793, “Noggin4 is a long-range inhibitor of Wnt8 signalling that regulates head development in Xenopus laevis” (Scientific Reports, 2016)
